Drawing on publication doi:10.1101/2025.11.15.688623, this text covers stoichiometry N for two substances.

Experiment [1] addresses AccA3 (biotin carboxylase subunit with C-terminal BCCP domain) (Mycobacterium smegmatis (endogenous in M. smegmatis)). Put plainly: cryo-EM structure.
Experiment [2] concerns the target AccE5 (ε-subunit) (Mycobacterium smegmatis (endogenous in M. smegmatis)). Put plainly: cryo-EM structure.

One may read the stoichiometry N as a count of units in the complex or per binding partner. “AccA3 (biotin carboxylase subunit with C-terminal BCCP domain) (enzyme)” had a stoichiometry N in experiment [1] of 4.
The substance AccE5 (ε-subunit) (natural protein) yielded a stoichiometry N in experiment [2] of 2.
